Measurements published in FireProtDB (doi:10.1016/j.jmb.2005.05.003).

Conditions: Equus caballus, Thermal, CD, Potassium citrate 10 mM, KCl 0.1 mM, reversible: yes, whole UniProt chain shown

B1: Beta-lactoglobulin-1 wild type, P02758 (protein)
chain: MKCLLLALGLALMCGIQATNIPQTMQDLDLQEVAGKWHSVAMAASDISLLDSESAPLRVYIEKLRPTPEDNLEIILREGENKGCAEKKIFAEKTESPAEFKINYLDEDTVFALDTDYKNYLFLCMKNAATPGQSLVCQYLARTQMVDEEIMEKFRRALQPLPGRVQIVPDLTRMAERCRI
pH 3.65
  Tm: 47.5 °C
  unfolding enthalpy (van 't Hoff): 37.8 kcal/mol
pH 3.71
  Tm: 49.4 °C
  unfolding enthalpy (van 't Hoff): 44.2 kcal/mol
pH 4
  Tm: 58.3 °C
  unfolding enthalpy (van 't Hoff): 51.5 kcal/mol
pH 4.2
  Tm: 59.7 °C
  unfolding enthalpy (van 't Hoff): 57.1 kcal/mol
pH 4.22
  Tm: 61.4 °C
  unfolding enthalpy (van 't Hoff): 57.8 kcal/mol
pH 4.23
  Tm: 57.3 °C
  unfolding enthalpy (van 't Hoff): 52.7 kcal/mol
